Measured values: article PMC6688529, “Dissecting the cytochrome c2–reaction centre interaction in bacterial photosynthesis using single molecule force spectroscopy” (Biochemical Journal, 2019)

What was measured:
[1] = molecular target: T1, monomeric RC–His12–LH1–PufX core complex (reaction centre light-harvesting 1-PufX) (Rba. sphaeroides, UniProt P0C0Y7 1-260; P0C0Y8 2-282; P0C0Y9 2-308; P0C0X9 1-58; P0C0Y1 1-49; P13402 1-82); assay: PeakForce QNM single-molecule force spectroscopy (AFM); RC–LH1–PufX on the AFM tip, illuminated; pre-reduced cytochrome c2-His6 (and His6-CFP in patterned lines) held on a Ni-NTA SiOx substrate; 10 mM HEPES pH 7.4, 45 mM KCl, room temperature; modulation frequencies 0.5, 1 and 2 kHz; details: both partners purified
[2] = molecular target: T1, monomeric RC–His12–LH1–PufX core …; assay: single-molecule dynamic force spectroscopy (AFM); RC–LH1–PufX on the AFM tip via His12/Ni-NTA and a PEG12 linker, kept photo-oxidised by white light; pre-reduced cytochrome c2-His6 held on a Ni-NTA SiOx substrate via His6; 10 mM HEPES pH 7.4, 45 mM KCl, room temperature; retract velocity 200–3000 nm s^-1; the paper calls the values apparent; details: both partners purified

B1: cytochrome c2-His6 (natural protein)
chain: QEGDPEAGAKAFNQCQTCHVIVDDSGTTIAGRNAKTGPNLYGVVGRTAGTQADFKGYGEGMKEAGAKGLAWDEEHFVQYVQDPTKFLKEYTGDAKAKGKMTFKLKKEADAHNIWAYLQQVAVRP
notes: cytochrome c2, cloned from Rba. sphaeroides strain 2.4.1; Carries a haem cofactor; pre-reduced with 1 mM sodium dithionite before the measurements; The gene was cloned with its own start; the signal peptide is surmised to be cut in Rba. sphaeroides; also called Cyt c2–His6; cyt c2; source: Rba. sphaeroides ΔcycA strain carrying the gene on pRK415, purified (LDAO-solubilised membrane fraction, …)
koff [1]: 198 s⁻¹ | koff [2]: 7.5 s⁻¹
